Laboratory results reported in paper doi:10.1101/2025.03.24.644895.

Target: Avi-tagged human eIF4A1 full length (human) (UniProt P60842)
Experiment: SPR

Sequence of Avi-tagged human eIF4A1 full length (human) (P60842 whole entry): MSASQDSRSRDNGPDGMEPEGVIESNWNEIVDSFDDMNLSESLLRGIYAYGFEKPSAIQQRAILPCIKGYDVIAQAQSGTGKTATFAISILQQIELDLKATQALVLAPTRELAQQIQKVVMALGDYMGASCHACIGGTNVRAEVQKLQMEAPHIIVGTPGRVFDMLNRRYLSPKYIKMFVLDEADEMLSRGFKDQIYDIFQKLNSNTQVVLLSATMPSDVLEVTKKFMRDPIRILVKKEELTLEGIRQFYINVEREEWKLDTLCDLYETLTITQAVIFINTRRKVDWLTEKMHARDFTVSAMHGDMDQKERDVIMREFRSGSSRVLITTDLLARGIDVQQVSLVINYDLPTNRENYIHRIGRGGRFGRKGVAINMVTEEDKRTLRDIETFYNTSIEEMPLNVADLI

fold increase in binding affinity with hippuristanol against no compound: 5 fold
Substance: eIF4G-MIF (middle domain of eIF4G, residues 712-1011) (domain or fragment)
